This is an account of results in patent US20070224662.

This series addresses inactive (non-phosphorylated) HIS-tagged MAPK14.

Chain of inactive (non-phosphorylated) HIS-tagged MAPK14 (chain, as listed by the source): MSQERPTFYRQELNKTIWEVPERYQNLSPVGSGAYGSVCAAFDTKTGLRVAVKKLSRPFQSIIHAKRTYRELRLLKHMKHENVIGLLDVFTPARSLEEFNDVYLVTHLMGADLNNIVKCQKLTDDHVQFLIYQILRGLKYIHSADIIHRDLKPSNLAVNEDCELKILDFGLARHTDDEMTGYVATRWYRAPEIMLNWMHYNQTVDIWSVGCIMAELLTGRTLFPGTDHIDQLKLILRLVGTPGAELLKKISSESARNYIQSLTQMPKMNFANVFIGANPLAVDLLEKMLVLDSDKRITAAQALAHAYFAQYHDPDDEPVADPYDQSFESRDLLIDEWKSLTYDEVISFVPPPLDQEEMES

B1: MKK6 (no-tag upstream kinase) (protein)
chain: MSQSKGKKRNPGLKIPKEAFEQPQTSSTPPRDLDSKACISIGNQNFEVKADDLEPIMELGRGAYGVVEKMRHVPSGQIMAVKRIRATVNSQEQKRLLMDLDISMRTVDCPFTVTFYGALFREGDVWICMELMDTSLDKFYKQVIDKGQTIPEDILGKIAVSIVKALEHLHSKLSVIHRDVKPSNVLINALGQVKMCDFGISGYLVDSVAKTIDAGCKPYMAPERINPELNQKGYSVKSDIWSLGITMIELAILRFPYDSWGTPFQQLKQVVEEPSPQLPADKFSAEFVDFTSQCLKKNSKERPTYPELMQHPFFTLHESKGTDVASFVKLILGD
For B1, the “amount of phosphorylated MAPK14, Western blot with the p38 antibody, at decreasing MKK6 plasmid (FIG. 3)” value is “as the concentration of the MKK6 plasmid present in the reaction was decreased, the amount of phosphorylation MAPK14 similarly decreased” and the “phosphorylation of MAPK14, Western blot with anti-phospho-p38 antibody (FIG. 2)” value was “co-expression of MAPK14 with MKK6 in the presence of an HEK 293 cell extract greatly enhances the phosphorylation of proteins present in the reaction”.
